Laboratory results from publication PMC9103184, “Kunitz-Type Peptides from Sea Anemones Protect Neuronal Cells against Parkinson’s Disease Inductors via Inhibition of ROS Production and ATP-Induced P2X7 Receptor Activation” (International Journal of Molecular Sciences, 2022).

Key:
[1] = CD spectroscopy, secondary structural elements (Provencher–Glockner); type: physicochemical; parameters: unit not given here; conditions: deionized water, Provencher–Glockner method
Excerpt: To calculate secondary structural elements of peptides, circular dichroism (CD) spectroscopy was applied. CD spectroscopy is a fast, well-established, and widely used analytical technique to study secondary structures of proteins and their changes in different environments. According to Figure 3, all spectra in the far UV region (190–240 nm) have similar profiles and are characterized by a positive maximum peak at 193 nm and negative minimum peaks at 202 and 225 nm. […] The peptides have an approximately equal content of secondary structural elements, while a slight increase in α-helixes and decrease in β-structure were found in HCIQ1c9 (Table 1), which might be reflected in the spatial structure and biological activity of the peptide.
(§1) Circular dichroism (CD) spectra were recorded on a Chirascan-Plus CD spectropolarimeter (Applied Photophysics, Leatherhead, UK) in quartz cuvettes with an optical path length of 0.1 cm for the peptide spectrum region. The peptides were dissolved in deionized water ([…]) and incubated at temperatures ranging from 25 °C to 100 °C for 20–25 min before recording the CD spectra. The secondary structure elements were calculated using the Provencher–Glockner method using advanced Provencher calculation programs from the CDPro software package (Leatherhead, UK).

[2] = Thermal stability by CD spectroscopy; type: physicochemical
Method: Figure 5 Evaluation of the thermal stability of peptides in deionized water via CD spectroscopy. Recordings of the CD spectra of HCIQ2c1 (a), HMIQ3c1 (b), HCIQ4c7 (c), and HCIQ1c9 (d) were conducted in the far UV region (190–240 nm) after the solutions were incubated over a temperature range from 25 °C to 100 °C for 20–25 min.
as §1

[3] = test system: Neuro-2a cells; assay: Paraquat-induced toxicity, cell viability (MTT); type: cell-based, murine; conditions: peptide up to 10 μM, 600 μM paraquat, 24 h
Method: The murine neuroblastoma cell line Neuro-2a was purchased from ATCC (CCL-131, American Type Culture Collection, Manassas, VA, USA). Cells were cultured in Dulbecco’s modified Eagle’s medium (DMEM) (Biolot, St. Petersburg, Russia) containing 10% fetal bovine serum (Biolot, St. Petersburg, Russia) and 1% penicillin/streptomycin (Biolot, St. Petersburg, Russia) according to ATCC’s instruction. Cells were incubated at 37 °C in a humidified atmosphere containing 5% CO2 (v/v). Before the experiments, Neuro-2a cells at a concentration of 1 × 10^4 cells/well were dispensed into 96-well plates and incubated for 24 h in a humidified atmosphere containing 5% CO2 to allow cell attachment.
Then, 20 μL of substance solution was loaded into the cells and incubated for 24 h followed by replacement of the medium with tested substances and 100 μL of fresh medium. Then, 10 μL of MTT (3-(4,5-dimethylthiazol-2-yl)-2,5- diphenyltetrazolium bromide) (Sigma-Aldrich, St. Louis, MO, USA) stock solution (5 mg/mL) was added to each well and the microplate was incubated for 4 h. […] The absorbance of the converted dye formazan was measured using a Multiskan FC microplate photometer (Thermo Scientific, Waltham, MA, USA) at a wavelength of 570 nm. […] Cytotoxic activity was expressed as the percentage of cell viability. […]

[4] = test system: Neuro-2a cells; assay: Rotenone-induced ROS formation (H2DCF-DA); type: cell-based, murine; conditions: peptide 0.01 μM, 10 μM rotenone 1 h, means ± SE
Method: Figure 8 Effects of the peptides on intracellular ROS and NO formation. The effects of the peptides on ROS formation into Neuro-2a cells treated by 600 μM paraquat (a) and 10 μM rotenone (b). The effects of peptides on NO formation into the cells treated by 600 μM paraquat (c) and 10 μM rotenone (d). Cells were incubated with peptides for 1 h at 37 °C, then 3 or 1 h with paraquat or rotenone, respectively. The data are shown as the means ± SE; *—p < 0.05, **—p < 0.01, #—p < 0.05 when comparing concentrations of the same peptide.
Neuro-2a cells were incubated with peptides at concentrations of 0.01, 0.1, and 1 µM for 1 h. Then, paraquat (600 μM) or rotenone (10 µM) was added to each well and cells were incubated for 3 or 1 h, respectively. To study the ROS formation, the 2,7-dichlorodihydrofluorescein diacetate (H2DCF-DA) assay was performed according to the manufacturer’s instructions (Molecular Probes, Eugene, OR, USA). […]
To determine the NO production, a 4-amino-5-methylamino-2′,7′-difluorofluorescein diacetate (DAF-FM) assay was performed according to the manufacturer’s instructions (Invitrogen, Carlsbad, CA, USA). […] In both cases, the fluorescence intensity was measured using a PHERAstar FS high-speed plate reader (BMG Labtech, Ortenberg, Germany) at λex = 485 nm and λem = 518 nm. […]

For “HCIQ2c1: recombinant Kunitz-type peptide from Heteractis crispa, UniProtKB ID A0A6B7FBD3 (IQGNICSEPKKVGRCRGSFPRFYFDSETGKCTPFIYGGCGGNGNNFETLHACRAICRA; UniProt A0A6B7FBD3 28-85, looked up)”, the “Unordered Structure” value [1] was 35.7, the β-Turn [1] was 19.0 and the “α-Helix II” value ([1]; irregular structure) was 13.9. The “β-Structure II” value ([1]; irregular structure) was 6.9, the “β-Structure I” value ([1]; regular structure) was 17.4 and the “α-Helix I” value ([1]; regular structure, far UV 190–240 nm) was 7.1. For the same substance, the “α-Helix III” value ([1]; summary value) was 21.0, the “β-Structure III” value ([1]; summary value) was 24.3 and the “CD spectral change on further heating” value ([2]; 100 °C, deionized water, 20–25 min) was “decreased positive peaks at 193 nm”. The “thermostability: retains conformation and biological activity until” value ([2]; CD spectra and residual trypsin-inhibitory activity) was 90–100 °C, the “CD spectrum: no significant changes after heating until” value ([2]; deionized water, 25–100 °C for 20–25 min, 190–240 nm) was 90 °C and the “influence on viability of paraquat-treated cells” value [3] was “did not influence the viability”. For the same substance, the “decrease in rotenone-induced ROS level” value [4] was 22.0 ± 7.3%.
